Among the data in paper PMC10034468, “The Pseudomonas aeruginosa PAO1 metallo flavoprotein D-2-hydroxyglutarate dehydrogenase requires Zn^2+ for substrate orientation and activation” (The Journal of Biological Chemistry, 2023) are Km, kcat and kcat/Km values, retold here.

Substrate in data set [1]: O=C(O)CC[C@@H](O)C(=O)O
Briefly: steady-state oxygen consumption, Clark-type electrode. It counts as biochemical, Pseudomonas aeruginosa. The following applies: E-Zn2+, PMS as co-substrate, 25 mM NaPO4, pH 7.4, 25 °C. An excerpt:
(§1) steady-state oxygen consumption, Clark-type electrode on PaD2HGDH (E-Zn^2+ and E-Co^2+)

Substrate in data set [2]: O=C(O)C[C@@H](O)C(=O)O
The data set is described as above. Format: biochemical, Pseudomonas aeruginosa. The following applies: E-Zn2+, PMS as co-substrate, 25 mM NaPO4, pH 7.4, 25 °C.
Excerpt: as §1

B1: PaD2HGDH (E-Zn^2+ and E-Co^2+) (Pseudomonas aeruginosa PAO1) (protein)
chain: MTREALIESLKPLVEPGKLLDDAASLDAYGKDWTKHFAPAPLAIVFPKSVEQVQAIVRWANQHKVGLVPSGGRTGLSAAAVAANGEVVVAFDYMNRILDFNAFDRTVVCQPGVVTKQLQTFAEENGLYYPVDFASSGSSQIGGNIGTNAGGIKVIRYGMTRNWVAGMKVVTGKGDLLELNKDLIKNATGYDMRQLFIGAEGTLGFVVEATMRLERTPKNLTAMVLGTPDFDSIMPVLHAFQSKLDLTAFEFFSDKALAKVLARGDVPRAFETDCPFYALLEFEATTEEVANEALATFEHCVEQGWVLDGVMSQSEQQLQNLWKLREYISETISHWTPYKNDISVTVSRVPAFLKDIDAIVEANYPDFEVVWFGHIGDGNLHLNILKPENLGKDEFFAKCATVNKWVFETVEKYNGSISAEHGVGMTKRDYLTYTRSETEIAYMKALKAVFDPNGIMNPGKIFAE
notes: FAD enzyme
As usually defined, the Km is the substrate concentration at which the rate is half of its maximum. For orientation: kcat means the number of substrate molecules converted per active site and unit of time at saturation. In general, kcat/Km refers to the turnover number divided by the Michaelis constant. On to B1, for which, in data set [1], the Km is listed as 0.08 ± 0.01 mM, the turnover number (kcat) worked out at 26 ± 1 s⁻¹ and the catalytic efficiency (kcat/Km) was found to be 330000 ± 43000 M⁻¹ s⁻¹. Besides, in data set [2], the Km was 6.0 ± 0.6 mM, the kcat was 52 ± 2 s⁻¹ and the kcat/Km was found to be 9000 ± 900 M⁻¹ s⁻¹.
